Biological target: the molecule itself
Experiment: SEC; Superdex 200 10/300, 50 mM Tris-HCl pH 8.0, 150 mM NaCl; tag removed with thrombin; oligomeric state estimated from the molecular mass

B1: XcSOD, manganese containing superoxide dismutase from Xanthomonas citri subsp. citri (enzyme)
chain: MAYTLPQLPYAYDALEPNIDAQTMEIHHTKHHQTYINNVNAALEGTEYADLPIEELVSKLKSLPENLQGPVRNNGGGHANHSLFWTVLSPNGGGEPKGEVAKAIDKDLGGFEKFKEAFTKAAVSRFGSGWAWLSVTPDKKLVVESTANQDSPLFEGNTPILGLDVWEHAYYLKYQNRRPEYIGAFYNAVNWEEVERRYHAAIA
notes: Cloned in pET28a; His-tag removed with thrombin before size exclusion chromatography and crystallization; also called MnSOD; product of the sodM gene (XAC2386); source: E. coli BL21 (DE3), purified (Ni-NTA, thrombin, size exclusion chromatography); not shown: His-tag, N-terminal, cleaved
B1 was tested, and the “stoichiometry N” value was 2.
